# In US20220315627A1:
# Tests used:
# [1] = biological target: variant of repaired and stabilized Du422 construct (HIV161818) with the additional K655I substitution (HIV-1 strain Du422 (clade C)); assay: assay not named in Example 11; trimer yield as defined in Example 3 (PGT145 AlphaLISA signal)
# [2] = biological target: C97ZA_SOSIP_L556P_T651F_M535N (HIV-1 strain C97ZA (clade C)); assay: AlphaLISA on crude supernatant as in Example 3: normalized PGT145 signal
# [3] = biological target: ConC_SOSIP with disulfide double substitution I204C, A433C (HIV-1 clade C consensus (artificial)); assay: AlphaLISA on crude supernatant: PGT145 signal divided by total Env signal (His/Flag beads)
# [4] = biological target: ConC_SOSIP with E64K, T316W double substitution (HIV-1 clade C consensus (artificial)); assay: as above
# [5] = biological target: variant of repaired and stabilized Du422 construct (HIV161818) with the additional K655I substitution (HIV-1 strain Du422 (clade C)); assay: assay not named in Example 11; trimer percentage as defined in Example 3 (PGT145 AlphaLISA signal over total Env signal)
substance,measurement,setting,value
mAb PGT145 (antibody),"trimer yield, fold over the variant of SEQ ID NO: 25 without K655I",[1],1.3 fold
same,"trimer yield, fold over the C97ZA SOSIP backbone",[2],5 fold
same,percentage of trimer formation,[3],43%
same,percentage of trimer formation,[4],15%
same,"trimer percentage, fold over the variant of SEQ ID NO: 25 without K655I",[5],1.4 fold
